Source: US20230406885A1, “CYCLIC PEPTIDES FOR TRAPPING INTERLEUKIN-1 BETA” (MERCK SHARP & DOHME LLC, priority 2022, published 2023)
*1 amine or outer side, *2 acyl side, *3 side chain or, on linkers, in order; H or OH if unused. Primed or numbered codes have the meaning given here. [ ]: non-standard residue; d: D form. aMeNle = (S)-2-amino-2-methylhexanoic acid (alpha-methyl-norleucine), CCCC[C@](C)(N[*:1])C(=O)[*:2]; Phe(4-(trans-4-COOH-cHex)) = N[C@@H](Cc1ccc([C@H]2CC[C@H](C(=O)O)CC2)cc1)C(=O)O; DapAc = (S)-3-acetamido-2-aminopropanoic acid, CC(=O)NC[C@H](N[*:1])C(=O)[*:2]; Phe(4-(4-Ac-piperazinyl)) = CC(=O)N1CCN(c2ccc(C[C@H](N)C(=O)O)cc2)CC1; Pro(trans-4-NH2) = O=C([C@@H]1C[C@@H](N[*:3])CN1[*:1])[*:2]; Bip(4'-COOH) = N[C@@H](Cc1ccc(-c2ccc(C(=O)O)cc2)cc1)C(=O)O; 1Nal(3S-Me) = C[C@@H](c1cccc2ccccc12)[C@H](N)C(=O)O; Ala(indolin-1-yl) = N[C@@H](CN1CCc2ccccc21)C(=O)O; Phe(4-COOH) = N[C@@H](Cc1ccc(C(=O)O)cc1)C(=O)O; h3Pal(5-CN) = N#Cc1cncc(CC[C@H](N)C(=O)O)c1; hTyr = N[C@@H](CCc1ccc(O)cc1)C(=O)O; hCha = N[C@@H](CCC1CCCCC1)C(=O)O; 4Pal = N[C@@H](Cc1ccncc1)C(=O)O; Cha = N[C@@H](CC1CCCCC1)C(=O)O; dαMeDab′ = not defined here; dDab = NCC[C@@H](N)C(=O)O; Nle = CCCC[C@H](N)C(=O)O; Orn = NCCC[C@H](N)C(=O)O; dDap = NC[C@@H](N)C(=O)O; dNMeA = CN[C@H](C)C(=O)O; Dab = NCC[C@H](N)C(=O)O; Dap = NC[C@H](N)C(=O)O

B1: SEQ ID NO: 196 (Example No. 196) (peptide)
peptide: cyclo([Phe(4-(trans-4-COOH-cHex))]W[Phe(4-COOH)]G[Pro(trans-4-NH2)][1Nal(3S-Me)]D[dNMeA]G[Bip(4'-COOH)][4Pal]G[dDab][hCha])
SMILES: C[C@@H]1C(=O)NCC(=O)N[C@@H](Cc2ccc(-c3ccc(C(=O)O)cc3)cc2)C(=O)N[C@@H](Cc2ccncc2)C(=O)NCC(=O)N[C@H](CCN)C(=O)N[C@@H](CCC2CCCCC2)C(=O)N[C@@H](Cc2ccc([C@H]3CC[C@H](C(=O)O)CC3)cc2)C(=O)N[C@@H](Cc2c[nH]c3ccccc23)C(=O)N[C@@H](Cc2ccc(C(=O)O)cc2)C(=O)NCC(=O)N2C[C@H](N)C[C@H]2C(=O)N[C@@H]([C@@H](C)c2cccc3ccccc23)C(=O)N[C@@H](CC(=O)O)C(=O)N1C
B2: SEQ ID NO: 204 (Example No. 204) (peptide)
peptide: cyclo([Phe(4-(4-Ac-piperazinyl))]W[Phe(4-COOH)]G[Pro(trans-4-NH2)][1Nal(3S-Me)]D[dNMeA]G[Bip(4'-COOH)][DapAc]K[dA][h3Pal(5-CN)])
SMILES: CC(=O)NC[C@@H]1NC(=O)[C@H](Cc2ccc(-c3ccc(C(=O)O)cc3)cc2)NC(=O)CNC(=O)[C@@H](C)N(C)C(=O)[C@H](CC(=O)O)NC(=O)[C@H]([C@@H](C)c2cccc3ccccc23)NC(=O)[C@@H]2C[C@@H](N)CN2C(=O)CNC(=O)[C@H](Cc2ccc(C(=O)O)cc2)NC(=O)[C@H](Cc2c[nH]c3ccccc23)NC(=O)[C@H](Cc2ccc(N3CCN(C(C)=O)CC3)cc2)NC(=O)[C@H](CCc2cncc(C#N)c2)NC(=O)[C@@H](C)NC(=O)[C@H](CCCCN)NC1=O
B3: SEQ ID NO: 207 (Example No. 207) (peptide)
peptide: cyclo([Phe(4-(4-Ac-piperazinyl))]W[Phe(4-COOH)]G[Pro(trans-4-NH2)][1Nal(3S-Me)]D[dNMeA]G[Bip(4'-COOH)]KL[dA][hCha])
SMILES: CC(=O)N1CCN(c2ccc(C[C@@H]3NC(=O)[C@H](CCC4CCCCC4)NC(=O)[C@@H](C)NC(=O)[C@H](CC(C)C)NC(=O)[C@H](CCCCN)NC(=O)[C@H](Cc4ccc(-c5ccc(C(=O)O)cc5)cc4)NC(=O)CNC(=O)[C@@H](C)N(C)C(=O)[C@H](CC(=O)O)NC(=O)[C@H]([C@@H](C)c4cccc5ccccc45)NC(=O)[C@@H]4C[C@@H](N)CN4C(=O)CNC(=O)[C@H](Cc4ccc(C(=O)O)cc4)NC(=O)[C@H](Cc4c[nH]c5ccccc45)NC3=O)cc2)CC1
B4: SEQ ID NO: 200 (Example No. 200) (peptide)
peptide: cyclo([Phe(4-(4-Ac-piperazinyl))]W[Phe(4-COOH)]G[Pro(trans-4-NH2)][1Nal(3S-Me)]D[dNMeA]G[Bip(4'-COOH)][4Pal]G[dDab][aMeNle])
SMILES: CCCC[C@]1(C)NC(=O)[C@@H](CCN)NC(=O)CNC(=O)[C@H](Cc2ccncc2)NC(=O)[C@H](Cc2ccc(-c3ccc(C(=O)O)cc3)cc2)NC(=O)CNC(=O)[C@@H](C)N(C)C(=O)[C@H](CC(=O)O)NC(=O)[C@H]([C@@H](C)c2cccc3ccccc23)NC(=O)[C@@H]2C[C@@H](N)CN2C(=O)CNC(=O)[C@H](Cc2ccc(C(=O)O)cc2)NC(=O)[C@H](Cc2c[nH]c3ccccc23)NC(=O)[C@H](Cc2ccc(N3CCN(C(C)=O)CC3)cc2)NC1=O
B5: SEQ ID NO: 201 (Example No. 201) (peptide)
peptide: cyclo([Phe(4-(4-Ac-piperazinyl))]W[Phe(4-COOH)]G[Pro(trans-4-NH2)][1Nal(3S-Me)]D[dNMeA]G[Bip(4'-COOH)][4Pal]G[dDab][hCha])
SMILES: CC(=O)N1CCN(c2ccc(C[C@@H]3NC(=O)[C@H](CCC4CCCCC4)NC(=O)[C@@H](CCN)NC(=O)CNC(=O)[C@H](Cc4ccncc4)NC(=O)[C@H](Cc4ccc(-c5ccc(C(=O)O)cc5)cc4)NC(=O)CNC(=O)[C@@H](C)N(C)C(=O)[C@H](CC(=O)O)NC(=O)[C@H]([C@@H](C)c4cccc5ccccc45)NC(=O)[C@@H]4C[C@@H](N)CN4C(=O)CNC(=O)[C@H](Cc4ccc(C(=O)O)cc4)NC(=O)[C@H](Cc4c[nH]c5ccccc45)NC3=O)cc2)CC1
B6: SEQ ID NO: 197 (Example No. 197) (peptide)
peptide: cyclo([Phe(4-(trans-4-COOH-cHex))]W[Phe(4-COOH)]G[Pro(trans-4-NH2)][1Nal(3S-Me)]D[dNMeA]G[Bip(4'-COOH)][4Pal]G[dDab][Nle])
SMILES: CCCC[C@@H]1NC(=O)[C@@H](CCN)NC(=O)CNC(=O)[C@H](Cc2ccncc2)NC(=O)[C@H](Cc2ccc(-c3ccc(C(=O)O)cc3)cc2)NC(=O)CNC(=O)[C@@H](C)N(C)C(=O)[C@H](CC(=O)O)NC(=O)[C@H]([C@@H](C)c2cccc3ccccc23)NC(=O)[C@@H]2C[C@@H](N)CN2C(=O)CNC(=O)[C@H](Cc2ccc(C(=O)O)cc2)NC(=O)[C@H](Cc2c[nH]c3ccccc23)NC(=O)[C@H](Cc2ccc([C@H]3CC[C@H](C(=O)O)CC3)cc2)NC1=O
B7: SEQ ID NO: 206 (Example No. 206) (peptide)
peptide: cyclo([Phe(4-(4-Ac-piperazinyl))]W[Phe(4-COOH)]G[Pro(trans-4-NH2)][1Nal(3S-Me)]D[dNMeA]G[Bip(4'-COOH)][Dap]L[dA][hCha])
SMILES: CC(=O)N1CCN(c2ccc(C[C@@H]3NC(=O)[C@H](CCC4CCCCC4)NC(=O)[C@@H](C)NC(=O)[C@H](CC(C)C)NC(=O)[C@H](CN)NC(=O)[C@H](Cc4ccc(-c5ccc(C(=O)O)cc5)cc4)NC(=O)CNC(=O)[C@@H](C)N(C)C(=O)[C@H](CC(=O)O)NC(=O)[C@H]([C@@H](C)c4cccc5ccccc45)NC(=O)[C@@H]4C[C@@H](N)CN4C(=O)CNC(=O)[C@H](Cc4ccc(C(=O)O)cc4)NC(=O)[C@H](Cc4c[nH]c5ccccc45)NC3=O)cc2)CC1
B8: SEQ ID NO: 205 (Example No. 205) (peptide)
peptide: cyclo([Phe(4-(4-Ac-piperazinyl))]W[Phe(4-COOH)]G[Pro(trans-4-NH2)][1Nal(3S-Me)]D[dNMeA]G[Bip(4'-COOH)][DapAc]L[dDap][h3Pal(5-CN)])
SMILES: CC(=O)NC[C@@H]1NC(=O)[C@H](Cc2ccc(-c3ccc(C(=O)O)cc3)cc2)NC(=O)CNC(=O)[C@@H](C)N(C)C(=O)[C@H](CC(=O)O)NC(=O)[C@H]([C@@H](C)c2cccc3ccccc23)NC(=O)[C@@H]2C[C@@H](N)CN2C(=O)CNC(=O)[C@H](Cc2ccc(C(=O)O)cc2)NC(=O)[C@H](Cc2c[nH]c3ccccc23)NC(=O)[C@H](Cc2ccc(N3CCN(C(C)=O)CC3)cc2)NC(=O)[C@H](CCc2cncc(C#N)c2)NC(=O)[C@@H](CN)NC(=O)[C@H](CC(C)C)NC1=O
B9: SEQ ID NO: 209 (Example No. 209) (peptide)
peptide: cyclo([Phe(4-(4-Ac-piperazinyl))]W[Phe(4-COOH)]G[Pro(trans-4-NH2)][1Nal(3S-Me)]D[dNMeA]G[Bip(4'-COOH)][Orn]L[dA][hCha])
SMILES: CC(=O)N1CCN(c2ccc(C[C@@H]3NC(=O)[C@H](CCC4CCCCC4)NC(=O)[C@@H](C)NC(=O)[C@H](CC(C)C)NC(=O)[C@H](CCCN)NC(=O)[C@H](Cc4ccc(-c5ccc(C(=O)O)cc5)cc4)NC(=O)CNC(=O)[C@@H](C)N(C)C(=O)[C@H](CC(=O)O)NC(=O)[C@H]([C@@H](C)c4cccc5ccccc45)NC(=O)[C@@H]4C[C@@H](N)CN4C(=O)CNC(=O)[C@H](Cc4ccc(C(=O)O)cc4)NC(=O)[C@H](Cc4c[nH]c5ccccc45)NC3=O)cc2)CC1
B10: SEQ ID NO: 202 (Example No. 202) (peptide)
peptide: cyclo([Phe(4-(4-Ac-piperazinyl))]W[Phe(4-COOH)]G[Pro(trans-4-NH2)][1Nal(3S-Me)]D[dNMeA]G[Bip(4'-COOH)][Cha]G[dDab][hTyr])
SMILES: CC(=O)N1CCN(c2ccc(C[C@@H]3NC(=O)[C@H](CCc4ccc(O)cc4)NC(=O)[C@@H](CCN)NC(=O)CNC(=O)[C@H](CC4CCCCC4)NC(=O)[C@H](Cc4ccc(-c5ccc(C(=O)O)cc5)cc4)NC(=O)CNC(=O)[C@@H](C)N(C)C(=O)[C@H](CC(=O)O)NC(=O)[C@H]([C@@H](C)c4cccc5ccccc45)NC(=O)[C@@H]4C[C@@H](N)CN4C(=O)CNC(=O)[C@H](Cc4ccc(C(=O)O)cc4)NC(=O)[C@H](Cc4c[nH]c5ccccc45)NC3=O)cc2)CC1
B11: SEQ ID NO: 203 (Example No. 203) (peptide)
peptide: cyclo([Phe(4-(4-Ac-piperazinyl))]W[Phe(4-COOH)]G[Pro(trans-4-NH2)][1Nal(3S-Me)]D[dNMeA]G[Bip(4'-COOH)][Dab]L[dA][hCha])
SMILES: CC(=O)N1CCN(c2ccc(C[C@@H]3NC(=O)[C@H](CCC4CCCCC4)NC(=O)[C@@H](C)NC(=O)[C@H](CC(C)C)NC(=O)[C@H](CCN)NC(=O)[C@H](Cc4ccc(-c5ccc(C(=O)O)cc5)cc4)NC(=O)CNC(=O)[C@@H](C)N(C)C(=O)[C@H](CC(=O)O)NC(=O)[C@H]([C@@H](C)c4cccc5ccccc45)NC(=O)[C@@H]4C[C@@H](N)CN4C(=O)CNC(=O)[C@H](Cc4ccc(C(=O)O)cc4)NC(=O)[C@H](Cc4c[nH]c5ccccc45)NC3=O)cc2)CC1
B12: SEQ ID NO: 198 (Example No. 198) (peptide)
peptide: cyclo([Phe(4-(4-Ac-piperazinyl))]W[Phe(4-COOH)]G[Pro(trans-4-NH2)][1Nal(3S-Me)]D[dNMeA]G[Bip(4'-COOH)][Ala(indolin-1-yl)]G[dDab][hTyr])
SMILES: CC(=O)N1CCN(c2ccc(C[C@@H]3NC(=O)[C@H](CCc4ccc(O)cc4)NC(=O)[C@@H](CCN)NC(=O)CNC(=O)[C@H](CN4CCc5ccccc54)NC(=O)[C@H](Cc4ccc(-c5ccc(C(=O)O)cc5)cc4)NC(=O)CNC(=O)[C@@H](C)N(C)C(=O)[C@H](CC(=O)O)NC(=O)[C@H]([C@@H](C)c4cccc5ccccc45)NC(=O)[C@@H]4C[C@@H](N)CN4C(=O)CNC(=O)[C@H](Cc4ccc(C(=O)O)cc4)NC(=O)[C@H](Cc4c[nH]c5ccccc45)NC3=O)cc2)CC1

What follows are binders tested against Recombinant human IL-1β (BioLegend 579404) (human, UniProt P01584 117-269) (assay: cell-based or functional assay).

MRC5 IC50	Binder
0.03 nM	B1
0.024 nM	cyclo([Phe(4-(4-Ac-piperazinyl))]W[Phe(4-COOH)]G[Pro(trans-4-NH2)][1Nal(3S-Me)]D[dNMeA]G[Bip(4'-COOH)][4Pal]G[dαMeDab′][hCha]) [SEQ ID NO: 199 (Example No. 199)]
0.009 nM	B2
0.011 nM	B3
0.034 nM	B4
0.03 nM	B5
0.024 nM	B6
0.018 nM	cyclo([Phe(4-(4-Ac-piperazinyl))]W[Phe(4-COOH)]G[Pro(trans-4-NH2)][1Nal(3S-Me)]D[dNMeA]G[Bip(4'-COOH)][LysAc]L[dA][h3Pal(5-CN)]) [SEQ ID NO: 208 (Example No. 208)]
0.015 nM	B7
0.01 nM	B8
0.009 nM	B9
0.029 nM	B10
0.012 nM	B11
0.021 nM	B12
